In patent US20200330548A1 (SYNERGY PHARMACEUTICALS, published 2020):
Bridge positions count the residues as written; N and C are the ends. Square brackets hold non-standard residues; d marks the D form. Ends that are not written are not given here.

Legend:
[1] = target: guanylate cyclase-C (GC-C) on T84 cells (human, UniProt P25092 24-1073); assay: cell-based or functional assay
[2] = target: T1, guanylate cyclase-C (GC-C) on rat jejunum tissue (rat, UniProt P23897 23-1072); assay: cell-based or functional assay
T1 sequence (looked up): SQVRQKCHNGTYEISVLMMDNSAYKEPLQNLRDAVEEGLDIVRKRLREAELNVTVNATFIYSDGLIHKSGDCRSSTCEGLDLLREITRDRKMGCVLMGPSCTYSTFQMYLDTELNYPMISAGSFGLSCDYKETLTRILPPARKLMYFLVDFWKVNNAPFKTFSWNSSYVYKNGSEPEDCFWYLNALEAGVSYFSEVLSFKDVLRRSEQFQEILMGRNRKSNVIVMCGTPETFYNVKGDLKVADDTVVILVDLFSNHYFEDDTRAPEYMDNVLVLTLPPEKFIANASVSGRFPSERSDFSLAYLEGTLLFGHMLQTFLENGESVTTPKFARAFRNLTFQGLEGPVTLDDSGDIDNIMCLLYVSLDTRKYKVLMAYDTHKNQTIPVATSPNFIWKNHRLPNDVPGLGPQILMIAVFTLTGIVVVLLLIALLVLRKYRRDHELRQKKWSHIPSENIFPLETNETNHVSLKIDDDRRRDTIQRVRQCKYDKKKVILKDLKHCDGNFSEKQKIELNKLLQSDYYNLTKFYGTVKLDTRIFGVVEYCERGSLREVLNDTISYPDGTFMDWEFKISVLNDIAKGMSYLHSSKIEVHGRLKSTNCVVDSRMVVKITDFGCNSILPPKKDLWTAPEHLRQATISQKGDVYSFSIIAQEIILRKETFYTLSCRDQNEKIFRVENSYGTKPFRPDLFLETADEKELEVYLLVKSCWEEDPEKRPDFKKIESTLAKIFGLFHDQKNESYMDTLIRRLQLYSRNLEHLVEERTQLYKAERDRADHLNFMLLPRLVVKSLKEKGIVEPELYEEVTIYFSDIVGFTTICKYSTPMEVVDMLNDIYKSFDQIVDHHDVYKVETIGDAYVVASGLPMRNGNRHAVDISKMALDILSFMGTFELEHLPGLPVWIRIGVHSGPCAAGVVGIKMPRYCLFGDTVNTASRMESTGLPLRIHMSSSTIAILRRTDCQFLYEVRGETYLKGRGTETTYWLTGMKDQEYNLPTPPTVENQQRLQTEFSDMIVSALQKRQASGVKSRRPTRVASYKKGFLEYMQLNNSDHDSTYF

guanylate cyclase-C (GC-C) on T84 cells, sequence (P25092 24-1073): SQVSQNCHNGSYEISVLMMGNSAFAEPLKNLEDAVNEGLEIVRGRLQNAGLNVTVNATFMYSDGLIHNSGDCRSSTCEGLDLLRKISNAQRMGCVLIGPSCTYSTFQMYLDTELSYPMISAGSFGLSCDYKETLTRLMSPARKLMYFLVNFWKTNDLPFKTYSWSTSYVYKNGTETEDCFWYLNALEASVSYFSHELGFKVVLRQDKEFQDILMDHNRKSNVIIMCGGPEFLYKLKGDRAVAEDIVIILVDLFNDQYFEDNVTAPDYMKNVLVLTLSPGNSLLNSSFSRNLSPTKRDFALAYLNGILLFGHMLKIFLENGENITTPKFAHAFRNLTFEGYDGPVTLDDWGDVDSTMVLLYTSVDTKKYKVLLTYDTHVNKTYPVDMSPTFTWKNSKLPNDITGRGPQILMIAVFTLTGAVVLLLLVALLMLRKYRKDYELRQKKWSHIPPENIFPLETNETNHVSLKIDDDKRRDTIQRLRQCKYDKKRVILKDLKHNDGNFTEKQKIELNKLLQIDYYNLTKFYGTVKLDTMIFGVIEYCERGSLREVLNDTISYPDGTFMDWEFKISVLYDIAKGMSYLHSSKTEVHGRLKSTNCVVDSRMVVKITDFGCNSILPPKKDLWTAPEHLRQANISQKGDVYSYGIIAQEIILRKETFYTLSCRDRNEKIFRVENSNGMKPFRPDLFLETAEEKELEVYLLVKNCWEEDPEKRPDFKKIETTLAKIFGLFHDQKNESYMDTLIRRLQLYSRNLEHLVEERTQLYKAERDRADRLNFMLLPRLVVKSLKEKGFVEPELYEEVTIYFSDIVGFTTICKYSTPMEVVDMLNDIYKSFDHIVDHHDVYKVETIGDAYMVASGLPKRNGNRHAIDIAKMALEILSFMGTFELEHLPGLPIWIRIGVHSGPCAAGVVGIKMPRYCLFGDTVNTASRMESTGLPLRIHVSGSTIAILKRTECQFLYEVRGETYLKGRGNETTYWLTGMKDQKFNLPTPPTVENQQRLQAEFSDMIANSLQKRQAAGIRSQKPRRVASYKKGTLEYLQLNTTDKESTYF

In the case of [dN]DECELCVNVACTGC[dL] (disulfide 4-12, 7-15) [SP-333], the “short-circuit current (Isc, chloride current) across T84 cells monolayer, Ussing chamber; EC50” value [1] is reported as 169 nM and the “short-circuit current (Isc, chloride current) across rat jejunum tissue, Ussing chamber; EC50” value [2] is reported as 299 nM.
